Measurements reported in PMC11808092.

What was measured:
[1] = target: human dUTPase (human)
[2] = target: biotinylated Stl^NT (residues 1-159) with C-terminal Avi-tag (Staphylococcus aureus); assay: BLI; biotinylated Stl construct on streptavidin SAX biosensors, hDUT in solution; Octet K2, 30 °C, 50 mM HEPES, 300 mM NaCl, 5 mM MgCl2, pH 7.5; at least five dilutions; 1:1 binding model; substrate-free
[3] = target: human dUTPase (human); assay: crystal structure; Stl^NT and hDUT mixed in 1:1 monomer molar ratio, ca. 20 mg/ml; crystals at 20 °C from 1.5 M ammonium sulfate, 0.1 M sodium acetate pH 5; 3.2 Å
[4] = target: human dUTPase (human); assay: steady state enzyme inhibition assay; apparent; 50 nM hDUT preincubated 5 min with varying Stl variant, 30 µM dUTP, 25 °C, 1 mM HEPES, 150 mM KCl, 5 mM MgCl2, 40 µM phenol red, pH 7.5; quadratic binding equation

Row | Substance | Residual activity of 50 nM hDUT at 300 nM Stl concentration [1] [%] | other results
1 | Stl-Y116R (natural protein) | 69 | –
2 | Stl-E189A (natural protein) | 77 | –
3 | human dUTPase (enzyme) | – | Kd [2]: 0.177 nM; koff [2]: 0.000106 s⁻¹; kon [2]: 600000 M⁻¹ s⁻¹; stoichiometry N [3]: 3
4 | Stl-L192A, F196A (natural protein) | 100 | –
5 | Stl-I181A, I184A (natural protein) | 70 | Ki [4]: 2.3 nM
6 | Stl-V55S (natural protein) | 75 | –
7 | Stl-S114D (natural protein) | 100 | –
8 | Stl-Y106R (natural protein) | 89 | –
9 | Stl-Y106K (natural protein) | 83 | –
10 | Stl^NT (amino terminal domain of Stl, residues 1-159) (domain or fragment) | 50 | Ki [4]: 31 nM
11 | Stl-derived peptide 95-…-117 | 70 | Ki [4]: 13 nM
12 | Stl protein, wild type, full-length (natural protein) | 30 | –
13 | Stl-S114E (natural protein) | 100 | –
